30 sequences from the nanobody polyreactivity screen of Harvey et al. (2022) can be followed below.

A short description of this series: yeast display, Sf9 membrane polyspecificity reagent, FACS + sequencing; frameworks hold sequencing errors. The gist of the method:
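A synthetic nanobody library was expressed on Saccharomyces cerevisiae BJ5465 by galactose induction for 36–48 hours. The library was stained for 1 hour at 4 °C with 10% biotinylated, detergent-solubilized Sf9 membrane reagent and enriched with streptavidin microbeads before FACS. Low and high (top ~1%) gates were set on anti-HA fluorescence for expression and streptavidin fluorescence for reagent binding, and each polyreactivity label reflects the gate of origin.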
On to “QVQLVESGGGLVQAGGSLRLSCAASAYNFDGYAMGWYRQAPGKERELVAAINSGGGTYYADSVKGRFTISRDNAKNTVYLQMNSLKPEDTAVYYCAKYTYDYWGQGTQVTVSS”, for which the “polyreactivity (PSR sort gate)” value is recorded as “low polyreactivity”. The same measure for “QVQLVESGGGLVQAGGSLRLSCAASGFTFGSNAMGWYRQAPGKERELVAAIRSRGGSTYYADSVKGRFTISRDNAKNTVYLQMNSLKPEDTAVYYCAADFIGRDYDYWGQGTQVTVSS”: “high polyreactivity”.

Consider “QVQLVESGGGLVQAVGSHRLICAASGSIFPYYAMGWYRQAPGKERELVATITYRGGSTNYADSVKGRFTISRDNAKNTVYLQMNSLKPEDTAVYYCAAEYYSIRYGPHSIEVYGMDYWGQGTHVTVSS”, for which the “polyreactivity (PSR sort gate)” value is “low polyreactivity”. With “QVQLVESGGGLVQAGGSLRLSCADSGGILFNYDMGWYRPAPGKERELVAAISRRGGTTYYADSVKGRFTISRDNAKNTVYLQMNSLKPEDTAVYYCAAYIYYSYYARVGYGDGNGYDYWGQGTQVTVSS”, the “polyreactivity (PSR sort gate)” value is given as “high polyreactivity”. The same measure for “QVQLVESGGGLVQAGGSLRLSCAASGSIFDANAMGCYRQAPGKERELVAAINWTGGSTYYADSVKGRFTISRDNAKNTVYLQMNSLKPEDTAVYYCAAEWWYPYNPDIYYYWGQGIQVTVSS”: “high polyreactivity”. As to “QVQLVESGGGLVQAGGSLRLSCAASGRTFPGNAMGWYRQAPGKERELVAAIRWRGGSTYYADSVKGRFTISRDNAKNTVYLQMNSLKPEDTAVYYCATRALGHFDWGQGTQVTVSS”, the “polyreactivity (PSR sort gate)” value is on record as “low polyreactivity”. Next, “HVQLVESGGGLVQAGGSLRLSCAASGRSFYKYAMGWYRQAPGKERELVAAISLRGARTYYADSVKGRFTISRDNATNTVYLQMHSLKPEETAVYYCAADNYYVRYAYNKSYSWGQGTQVTGSS”: “low polyreactivity”; “QVQLVESGGGLVQAGGSLRLSCAASGITFPLYAMGWYRQAPGKERELVASITRGGTTNYADSVKGRFTISRDNAKNTVYLQMNSLKPEDTAVYYCAAVVTRERGYDYWGQGTQVTVSS”: “low polyreactivity”; “QVLLVESGRVLVQAGGSLRLSCAASVSIFANYAMARYIQAPGKERELVASITSSARRTFYADSVKGRFTISRDNAKNTVYLQMNSLKPEVTAVYYCAAKHRRRTVSTRYDDWGQGTQGTVSS”: “high polyreactivity”. With “QVQLVESGGGLVQAGGSLRLSCAASGRTYGYYAMGWYRQAPGKERELVAAITRSGGSTYYADSVKGRFTISRDNAKNTVYLQMNSLKPEDTAVYYCNAVYYKGYGYWGQGSQVTVSS”, the “polyreactivity (PSR sort gate)” value is “high polyreactivity”. The same measure for “QVQLVESGGGLVQAGGSLRLSCAASGFTFQYYAMGWYRQAPGKERELVAAISRGGSTNYADSVKGRFTISRDNAKNTVYLQMNSLKPEDTAVYYCARLGWTYLWGYDSWGQGTQVTVSS”: “high polyreactivity”; for “QVQLVESGGGLVQAGGSLLLSCAASGSTFPGYAMGWYRQEPGKERELVAAGGSTYYADSVKGRFTISLDNAKNTVYLQMNSLKPEDTAVYYCNARWYLVPIMEYLGQGTQVTVSS”: “low polyreactivity”.

Consider “QVQLVESGGGLVQAGGSLRLSCAASGYTFDPNAMGWYRQAPGKERELVAAISRIGGSTYYADSVKGRFTISRDNAKNTVYLQMKSLKPEDTAVYYCAVDWYLTGHWADDYWGQGTQVTVSS”, for which the “polyreactivity (PSR sort gate)” value was “low polyreactivity”. Next, “QVQIVESGVGLVQAGGSLRLSCAASGTIFARYAMGWYRQAPGKERELVAAISWRGGRTYYADSVKGRFTISRDNAKNTVYLQMNSLKPEVTAVYYCAARRQQRGANGGDYWGQGTQVTLSS”: “high polyreactivity”; “QVQLVESGGVLVQAGGSLRLSCAASGRTFSVYTMGWYRQAPGKERELVASINWSGGRTYYADSVKGRFTISRDKAKNTVYLQMNSLKPEDTAVYYCAATGWRTLYDYWGQGTQVTVSS”: “high polyreactivity”; “QVQLVESGGGLVQAGGSLSLSCAASGFTFYGNAIGGNRQAPGKERELVASISTYYADSVKGRFTISRDNAKNTVYLQMNSLKPEDTAVYYCAATHYDRTYYVIYDYWGQGTQVTVSS”: “low polyreactivity”. In the case of “QVQLVESGGGLVQAGGSLRFSCAASGSIFDRYAMGWYRQAPGKERELVAAITYSGGSTYYADSVKGRFTISRDNAKNTVYLQMNSLKPEDTAVYYCATETYPQGRYYQSYDYWGQGTQVTVSS”, the “polyreactivity (PSR sort gate)” value is “low polyreactivity”.

With “QVQLVESGGGLVQAGGSLRLSCAASGRTFYYYAMGWYRQAPGKERELVASITYYADSVKGRFTISRDNAKNTVYLQMNSLKPEDTAVYYCAAEHKYRYDYWGQGTQVTVSS”, the “polyreactivity (PSR sort gate)” value is on record as “low polyreactivity”. The same measure for “QVQLQESGGGLVQAGGSLRLSCASSGSIFKVVDKGLYRQAPAKEREFVATIGEGGNTYYADSVKGRFTISRDNAKNTVYLQMNSLKPEDTAVYFYAVVLGTSYRYTYWGQGTQVTVSS”: “low polyreactivity”. The same measure for “QVQLVESGGGLVQAGGSLRLSCAASGRTFYYYAMGWYRPAPGKERELVAAITSGGRTYYADSVKGRFTISRDNAKNRVYLQMQSLKPEDTAVYYCAARDFFRYSLGYDYWGQGTQVTVSS”: “high polyreactivity”; for “QVQLVESGGGLVQAGGSLRVSCAASGFTFYRYAMGWYRQAPGKERELVAAITWSGGSTYYADSVKGRFTISRDNAKNTVYLQMNSLKPEDTAVYYCAADIYDGGFDYWGQGTQVTVSS”: “low polyreactivity”. On to “QVQLVESGGGLVQAGGSLRLSCAASGSTSRSAMGWYRQAPGKERELVASITRGGSTYYADSVKGRFTISRDNAKNTVYLQMNSLKPEDTAVYYCAARFPQHNYWAMDYWGQGTQVTVSS”, for which the “polyreactivity (PSR sort gate)” value is “high polyreactivity”. The same measure for “QVQLVESGGGLVQAGCSLRLSCAASGRTLGWNAMGWYRQAPGKERELVAAISSSTSTYYADSVKGRFTISRDNAKNTVYLQMNSLKPEDTAVYYCAALYWGQGTQVTVSS”: “low polyreactivity”; for “QVQLVESGGGLVQAGGSLRLSCAASGRIFGGYVMGWYRQAPGKERELVAAINGGGGSTYYADSVKGRFTISRDNAKNTVYLQMNSLKPEDTAVYYCMLVKRSQRKSTIDFDYWGQGTQVTVSS”: “high polyreactivity”; for “QVQLVESGGGIVQAGGSLRLSCAASGFIFAGNAMGWSSQAPGKERELVAAITRRGGSTHYADSVKGRFTISRDKAKYTVYLQMNSLKPEDTAVYYCNAAVQPPWSDYWGQGTQVTVSS”: “low polyreactivity”. The same measure for “QVQLVESGGGLVQAGGSLRLSCAASGSTFTYYTMGWYRQAPVKERELVAAISTSGGRTYDADSVKGRFTISRDYAKIPVFLQMNSLKPEDTAVYYCAAYSRTYDREFDYWGQGTQVTVSS”: “high polyreactivity”; for “QVQLVESGGGLVQAGGSLRLSCAASGIIFARYAMGWYRQAPGKERELVAAITRRAVSTYYADSVKGRFTISRDNAKNTVYLQMNSLKPEDTAVYYCAADRASYFTYAYGYWGQGTQVTVSS”: “high polyreactivity”; for “QLQLVESGAGLVQAGGSLRLSCAASGNIFRKNAMGRSRQAPGKERELVAAISRRGGNSYYADSVKGRFTISRDNAKNTVYLQMNSLKPEDTAVYYCAADWSPTAASDYWGQGTQVTVSS”: “high polyreactivity”. The same measure for “QVQLVESGGGLVQAGGSLRLSCAASGSIISANAMGWYRQAPGKESELVAAITSGDSTKYADSVKGRFTISRDNAKNTVYLQMNSLKPEDTAVYYCAVDRGVYKNRDGEEYWGQGTQVTVSS”: “low polyreactivity”. As for “QVQLVESGVGLVQAGGSLRLSCAASGSTFDVYDMGWYRQAPGKERELVASISWDGDRTYYADSVKGRFTISRDNAKNTVYLQMKSLKPEDTAVYYCAATLRPYSSFPNRYGYWGQGTQVSVSS”, the “polyreactivity (PSR sort gate)” value is “low polyreactivity”.
